Source: US9481870B2, “Nucleic acid encoding a polypeptide having aminotransferase activity, vectors and host cells comprising the nucleic acid” (KANEKA CORPORATION, priority 2010, dated 2016)

Legend:
[1] = Transamination activity assay (activity assay A), activity for (S)-1-phenethylamine; format: biochemical; settings: (S)-1-phenethylamine 25 mM, sodium pyruvate 25 mM, pH 8.0, 30° C., 5 minutes
Experimental: The above transamination activity can be determined by the following method. Specifically, first, a purified polypeptide is added to a substrate solution having the following composition so that the total volume is 1 mL. After 5 minutes of reaction at 30° C., 0.05 mL of 6N hydrochloric acid is added to stop the reaction. The reaction solution is then analyzed by HPLC under the following conditions and then the quantity of the thus generated acetophenone is determined (hereinafter, referred to as “activity assay A”).
(§1) The transamination activity of purified TPM was examined under the following activity assay conditions. Specifically, purified TPM was added to a substrate solution with the composition given below to a total amount of 1 mL. After 5 minutes of reaction at 30° C., 0.05 mL of 6N hydrochloric acid was added to stop the reaction. HPLC analysis was conducted under the following conditions.
[High Performance Liquid Chromatography (HPLC) Analysis Conditions] • Column: Wakosil-II 5C18 RS (Wako Pure Chemical Industries, Ltd.) • Eluent: 10 mM potassium phosphate buffer (pH5.3): acetonitrile=3:2 • Flow rate: 1 mL/minute • Detection: 241 nm • (1) Activity for (S)-1-phenethylamine: […]

[2] = Thermal stability (residual activity after 30 minutes heating); format: physicochemical; settings: for Residual activity: pH7.5, before heat treatment = 100
Experimental: The thermal stability of the polypeptide is determined as follows.
The purified TPM was reacted for 30 minutes in 0.1 M potassium phosphate buffer (pH7.5) containing 0.5 mM pyridoxal phosphate at 30° C., 40° C., 50° C., 60° C., 70° C., and 80° C., and then activity assay was performed in a similar manner. As a result, 90% or more of the activity before heat treatment remained after treatment at 30° C. to 60° C.

[3] = Optimum temperature of transamination activity; format: biochemical
Experimental: as §1
Transamination activity was determined at 10° C., 20° C., 30° C., 40° C., 50° C., 60° C., and 70° C. under the same conditions above.

[4] = Activity of purified TPM for 1-benzyl-3-pyrrolidinone and optical purity of product; format: biochemical; settings: 2 hours
Experimental: The above properties can be determined by the following method. Specifically, a purified polypeptide is added to a substrate solution having the following composition so that it has a final concentration ranging from 0.1 mg/mL to 1 mg/mL for reaction at 30° C. Furthermore, the reaction is continued until 0.6 mM or more 1-benzyl-3-aminopyrrolidine (as determined by the following quantitative analysis) is generated. After the completion of the reaction, the optical purity of the 1-benzyl-3-aminopyrrolidine generated in the reaction solution is analyzed by HPLC under the following conditions. […]
[High Performance Liquid Chromatography (HPLC) Analysis Conditions] • <Quantitative A> • Column: Finepak SIL C18-T (JASCO Corporation) • Eluent: distilled water 1260 mL/acetonitrile 740 mL/KH2 PO4 10 g/SDS 2.88 g (pH3.6) • Flow rate: 1 mL/minute • Detection: 254 nm • Column temperature: 40° C. […]
A reaction solution was treated with an appropriate amount of sodium carbonate so that it became basic, derivatized with dinitrobenzoyl chloride, and then analyzed under the following conditions. • Column: Chiral pak IA (Daicel Corporation) • Eluent: hexane/ethanol/diethylamine/acetonitrile=800/200/1/5 (volume ratio) • Flow rate: 0.8 mL/minute • Detection: 254 nm

[5] = Optimum pH of transamination activity; format: biochemical
Experimental: The optimum pH for transamination is determined by the above activity assay A using combinations of the following buffers and pHs. […] When activity levels are different depending on buffer types, the activity level higher than the other is employed even if the pHs are the same. • pH4.0, 4.5, 5.0, 5.5: 0.1 M sodium acetate buffer • pH6.0, 6.5, 7.0, 7.5, 8.0: 0.1 M potassium phosphate buffer • pH7.5, 8.0, 8.5, 9.0: 0.1M Tris-hydrochloric acid buffer (Optimum Temperature)
as §1
Transamination activity was determined in a manner similar to the above at pHs ranging from 4.0 to 9.0 and then the optimum pH of TPM was examined.
The following buffers were used according to pH for determination.
[Buffer] • pH4.0, 4.5, 5.0, or 5.5: 0.1 M sodium acetate buffer • pH6.0, 6.5, 7.0, 7.5, or 8.0: 0.1 M potassium phosphate buffer • pH7.5, 8.0, 8.5, or 9.0: 0.1 M tris-hydrochloric acid buffer • (3) Optimum Temperature: […]

B1: TPM: purified aminotransferase polypeptide from Pseudomonas sp. MV37, about 50,000 molecular weight, amino acid sequence SEQ ID NO: 1 (protein, listed as Pseudomonas sp.)
chain: MNHLEKMLELDRNHLIHPHLPKSEFSRTIFARGKGCKLWDTEGREYLDATGGLWLAQIGHGREEIAEVAARQMKQLEYFTCFWDFSNERAIELAEKLARLAPGDLEMSFFTSGGSEGDDAAIKTARYYHSQRGEPKRTWILSRNNAYHGLAYGGGTATGFPELRDGMGPGLPHVAYLTQPNAYRHYYFDGQNPTDFCVSELEKMIASIGAENIAAMIAEPIMGVGGMVPPPVDYWPRMSQVLKKNGILLIFDEVVSAFGRSGHWFAAEKYGVIPDIMVTAKGISSGYIPLGAVIMSRDVADTVREGHGYPLGYTYSGHPVACAVALENLRILEDEDLINRSNHMGTYIAEQLTALRDNPCVGEVRQAGMGIGIELVTDKESRQPLPDAALVIPDIIREETGVIVRISNATNLCMSPPLTMSREEADRAVEAVCSVLSRVKPDGKV
Transamination activity for (S)-1-phenethylamine [1]: 11.8 U/mg
activity remaining relative to before heat treatment ([2]; after treatment at 30° C. to 60° C.): ≥ 90%
Residual activity ([2]; treatment 30° C.): 108
Residual activity ([2]; treatment 40° C.): 115
Residual activity ([2]; treatment 50° C.): 120
Residual activity ([2]; treatment 60° C.): 100
Residual activity ([2]; treatment 70° C.): 12
optimum temperature ([3]; 10° C. to 70° C. tested): 60 °C
Relative activity ([3]; Reaction temperature 10° C., activity at 60° C. = 100): 8
Relative activity ([3]; Reaction temperature 20° C., activity at 60° C. = 100): 16
Relative activity ([3]; Reaction temperature 30° C., activity at 60° C. = 100): 33
Relative activity ([3]; Reaction temperature 40° C., activity at 60° C. = 100): 49
Relative activity ([3]; Reaction temperature 50° C., activity at 60° C. = 100): 77
Relative activity ([3]; Reaction temperature 60° C., designated as 100): 100
Relative activity ([3]; Reaction temperature 70° C., activity at 60° C. = 100): 68
conversion rate ([4]; (S)-1-phenethylamine 85.6 mM, 1-benzyl-3-pyrrolidinone 57.1 mM, pH 7.0, 30° C.): 90%
optical purity ([4]; generated (S)-1-benzyl-3-aminopyrrolidine, 30° C.): 98.0 % e.e.
Relative activity ([5]; 0.1M Potassium phosphate, pH 6.0, activity at pH7 = 100): 86
Relative activity ([5]; 0.1M Potassium phosphate, pH 6.5, activity at pH7 = 100): 94
Relative activity ([5]; 0.1M Potassium phosphate, pH 7.0, designated as 100): 100
Relative activity ([5]; 0.1M Potassium phosphate, pH 7.5, activity at pH7 = 100): 88
Relative activity ([5]; 0.1M Potassium phosphate, pH 8.0, activity at pH7 = 100): 67
Relative activity ([5]; 0.1M Sodium acetate, pH 4.0, activity at pH7 = 100): 7
Relative activity ([5]; 0.1M Sodium acetate, pH 4.5, activity at pH7 = 100): 25
Relative activity ([5]; 0.1M Sodium acetate, pH 5.0, activity at pH7 = 100): 57
Relative activity ([5]; 0.1M Sodium acetate, pH 5.5, activity at pH7 = 100): 71
Relative activity ([5]; 0.1M Tris-hydrochloric acid, pH 7.5, activity at pH7 = 100): 96
Relative activity ([5]; 0.1M Tris-hydrochloric acid, pH 8.0, activity at pH7 = 100): 95
Relative activity ([5]; 0.1M Tris-hydrochloric acid, pH 8.5, activity at pH7 = 100): 85
Relative activity ([5]; 0.1M Tris-hydrochloric acid, pH 9.0, activity at pH7 = 100): 67
